Reference: IntAct's records for PubMed 10524631

B1: Phytochrome A (Arabidopsis thaliana (Mouse-ear cress)), P14712 (parent)
chain: MSGSRPTQSSEGSRRSRHSARIIAQTTVDAKLHADFEESGSSFDYSTSVRVTGPVVENQPPRSDKVTTTYLHHIQKGKLIQPFGCLLALDEKTFKVIAYSENASELLTMASHAVPSVGEHPVLGIGTDIRSLFTAPSASALQKALGFGDVSLLNPILVHCRTSAKPFYAIIHRVTGSIIIDFEPVKPYEVPMTAAGALQSYKLAAKAITRLQSLPSGSMERLCDTMVQEVFELTGYDRVMAYKFHEDDHGEVVSEVTKPGLEPYLGLHYPATDIPQAARFLFMKNKVRMIVDCNAKHARVLQDEKLSFDLTLCGSTLRAPHSCHLQYMANMDSIASLVMAVVVNEEDGEGDAPDATTQPQKRKRLWGLVVCHNTTPRFVPFPLRYACEFLAQVFAIHVNKEVELDNQMVEKNILRTQTLLCDMLMRDAPLGIVSQSPNIMDLVKCDGAALLYKDKIWKLGTTPSEFHLQEIASWLCEYHMDSTGLSTDSLHDAGFPRALSLGDSVCGMAAVRISSKDMIFWFRSHTAGEVRWGGAKHDPDDRDDARRMHPRSSFKAFLEVVKTRSLPWKDYEMDAIHSLQLILRNAFKDSETTDVNTKVIYSKLNDLKIDGIQELEAVTSEMVRLIETATVPILAVDSDGLVNGWNTKIAELTGLSVDEAIGKHFLTLVEDSSVEIVKRMLENALEGTEEQNVQFEIKTHLSRADAGPISLVVNACASRDLHENVVGVCFVAHDLTGQKTVMDKFTRIEGDYKAIIQNPNPLIPPIFGTDEFGWCTEWNPAMSKLTGLKREEVIDKMLLGEVFGTQKSCCRLKNQEAFVNLGIVLNNAVTSQDPEKVSFAFFTRGGKYVECLLCVSKKLDREGVVTGVFCFLQLASHELQQALHVQRLAERTAVKRLKALAYIKRQIRNPLSGIMFTRKMIEGTELGPEQRRILQTSALCQKQLSKILDDSDLESIIEGCLDLEMKEFTLNEVLTASTSQVMMKSNGKSVRITNETGEEVMSDTLYGDSIRLQQVLADFMLMAVNFTPSGGQLTVSASLRKDQLGRSVHLANLEIRLTHTGAGIPEFLLNQMFGTEEDVSEEGLSLMVSRKLVKLMNGDVQYLRQAGKSSFIITAELAAANK
partner: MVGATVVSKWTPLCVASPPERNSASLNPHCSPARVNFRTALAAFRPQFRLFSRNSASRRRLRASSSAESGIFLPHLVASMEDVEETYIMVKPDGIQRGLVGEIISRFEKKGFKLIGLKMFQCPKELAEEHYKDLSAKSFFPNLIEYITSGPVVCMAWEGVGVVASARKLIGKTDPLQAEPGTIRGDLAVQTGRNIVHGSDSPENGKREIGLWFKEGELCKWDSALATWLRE

Variants of: B1
Conditions: with ndk2_arath NDPK2, O64903

Variant	effect of a mutation on the interaction
G727E	decreasing interaction
G750E	decreasing interaction strength
